The values below come from US20160122426A1 (DONG A SOCIO, published 2016).

The chains are these.
T1: human VEGF-C (human, UniProt P49767 103-227, limits assumed)
T1 construct: also called hVEGF-C
T1 sequence (looked up): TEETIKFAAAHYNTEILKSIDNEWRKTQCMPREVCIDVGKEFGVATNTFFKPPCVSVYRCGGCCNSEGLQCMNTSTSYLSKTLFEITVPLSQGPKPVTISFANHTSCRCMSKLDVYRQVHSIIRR

T2: human placental growth factor (human, UniProt P49763-2 21-149, limits assumed)
T2 construct: also called PlGF; PIGF
T2 sequence (looked up): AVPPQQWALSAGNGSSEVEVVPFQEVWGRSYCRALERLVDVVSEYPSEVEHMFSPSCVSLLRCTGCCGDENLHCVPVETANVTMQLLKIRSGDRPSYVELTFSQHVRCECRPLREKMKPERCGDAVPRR

T3: human VEGF-B (human, UniProt P49765-2 22-188, limits assumed)
T3 construct: also called hVEGF-B
T3 sequence (looked up): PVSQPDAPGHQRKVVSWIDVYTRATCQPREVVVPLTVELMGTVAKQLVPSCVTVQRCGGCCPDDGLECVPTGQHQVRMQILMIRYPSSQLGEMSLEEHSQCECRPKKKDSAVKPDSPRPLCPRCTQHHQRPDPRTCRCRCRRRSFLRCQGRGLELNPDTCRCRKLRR

T4: human VEGF-D (human, UniProt O43915 93-201, limits assumed)
T4 construct: also called hVEGF-D
T4 sequence (looked up): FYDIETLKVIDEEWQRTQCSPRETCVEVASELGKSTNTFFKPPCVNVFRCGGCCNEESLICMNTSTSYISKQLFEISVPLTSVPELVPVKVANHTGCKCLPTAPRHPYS

T5: mouse VEGF (mouse, UniProt Q00731-2 27-190)
T5 construct: Bought recombinant protein; also called mVEGF-A; mouse VEGF-A
T5 sequence (looked up): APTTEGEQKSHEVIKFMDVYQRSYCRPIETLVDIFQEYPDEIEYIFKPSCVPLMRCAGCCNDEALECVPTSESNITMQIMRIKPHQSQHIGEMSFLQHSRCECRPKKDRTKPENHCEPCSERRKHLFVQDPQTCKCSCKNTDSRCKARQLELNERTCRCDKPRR

B1: HF2-5 (antibody, V domains shown)
VH: EVQLVESGGGLVQPGGSLRLSCAASGFMIRSHGMQWVRQAPGKGLEYVAGISSDGSWARHSAAVEGRFTISRDDSKNTAYLQMNSLRAEDTAVYYCARDFSTGYGADSIDAWGQGTLVTVSS
VL: DIQMTQSPSSLSASVGDRVTITCSGGSDSAYGYGWYQQKPGKAPKTLIYWDDKRPSGVPSRFSGSRSGTDFTLTISSLQPEDFATYYCGAWEYSGGVGIFGQGTKVEIK
notes: also called HF-5
B2: HF2-9 (antibody, V domains shown)
VH: B1 VH with G26M, M28R, A58F, H60V, S61A
VL: B1 VL with D28M, S29E, A30P, Y31L
notes: also called HF-9
B3: HF2-1 (antibody, V domains shown)
VH: B1 VH with G26N, M28V, I29F, A58T, R59G, H60Y, S61G
VL: B1 VL
notes: also called HF-1
B4: HF2-11 (antibody, V domains shown)
VH: B1 VH with M28L, A58V, R59K, H60V, S61A
VL: B1 VL with D28S, S29E, A30P, Y31L
notes: also called HF-11; clone HF2-11
B5: HF2-4 (antibody, V domains shown)
VH: B1 VH with F27W, M28S, I29M, A58R
VL: B1 VL
notes: also called HF-4
B6: HF2-8 (antibody, V domains shown)
VH: B1 VH with M28H, A58L, R59K, H60L
VL: B1 VL with D28T, S29Y, A30S, Y31L
notes: also called HF-8
B7: HF2-26 (antibody, V domains shown)
VH: B1 VH with G26R, M28N, I29M, A58I, H60V, S61Q
VL: B1 VL with S24T, G25A, G26P, S27A
B8: HF2-19 (antibody, V domains shown)
VH: B1 VH with M28S, I29T, A58K, R59A, H60T, S61A
VL: B1 VL
B9: HF2-25 (antibody, V domains shown)
VH: B1 VH with G26Y, F27M, M28E, I29Y, A58F, H60M, S61N
VL: B1 VL with D28N, S29F, A30P, Y31M
B10: HF2-14 (antibody, V domains shown)
VH: B1 VH with G26H, F27S, M28S, A58L, H60Q, S61D
VL: B1 VL

Residue numbers refer to the chain shown, from its start.

For the first assay, the target named is T1, human VEGF-C. Description: ELISA, 0.2 ug/ml protein coated, anti-human IgG-Fab-HRP, absorbance 650 nm; antibody concentration not shown. How it is done:
(§1) 0.2 μg/ml each of the respective proteins (hVEGF-A, mVEGF-A, hVEGF-B, hVEGF-C, hVEGF-D and PlGF) (R&D systems) were coated to the wells of ELISA plate, respectively. After blocking them with PBS containing 3% BSA and 0.05% Tween 20 for 30 min at 37° C., antibody clone proteins of increasing concentrations were incubated at 37° C. for 2 hr. Then, the wells were washed with PBS containing 3% BSA and 0.05% Tween 20 for 3 times, and anti-human IgG-Fab-HRP conjugate (Jackson Immunoresearch, USA) was added thereto and incubated for 1 hr at room temperature. Then they were washed with PBS containing 3% BSA and 0.05% Tween 20 for 3 times, and developed using TMB, and absorbance was measured at 650 nm.
For the molecule B1, the binding result was “no binding”.
Still for that read-out and setting: the same measure for B2: “no binding”; for B3: “no binding”; for B4: “no binding”.

A further assay addresses T2, human placental growth factor. The description is as above. As to the method:
as §1
As to B1, the binding result was “no binding”.
Still for that read-out and setting: the same measure for B2: “no binding”.
On the same count and under the same terms, the same measure for B3: “no binding”.
Same read-out and setting: the same measure for B4: “no binding”.

A further assay has as its target T3, human VEGF-B. The description is as above. As to the method:
as §1
As for B1, the binding result is “no binding”.
Still for that read-out and setting: the same measure for B2: “no binding”; for B3: “no binding”; for B4: “no binding”.

The target in a further assay is T4, human VEGF-D. The assay is described as above. How it is done:
as §1
As to B1, the binding result is given as “no binding”.
The same measure, in the same setting: the same measure for B2: “no binding”; for B3: “no binding”; for B4: “no binding”.

The target of another assay is T6, human VEGF (human, UniProt P15692-4 27-191).
T6 construct: Bought recombinant protein; also called hVEGF; human VEGF-A
The assay is described as follows: competition ELISA: human VEGF coated, 9 nM KDR ECD IgG-Fc (VEGFR2) added together with the antibody, bound receptor-Fc detected, absorbance 405 nm. As to the method: 0.5 μg/ml of human VEGF was coated to 96-well ELISA plate and blocked with PBS solution containing 3% BSA and 0.05% Tween 20.
For orientation: An ELISA detects its analyte on a solid surface through an enzyme-linked reagent.
On to B1, for which the “IC50 (read off the curve)” value was approximately 5 nM.
Turning to B2, the “IC50 (read off the curve)” value was approximately 5 nM.
In the case of B3, the “IC50 (read off the curve)” value was approximately 5 nM.
The same measure, in the same setting: the same measure for B4: approximately 5 nM.

For another assay, the target named is T6, human VEGF. The assay is described as follows: ELISA, human VEGF coated, anti-human Fc-HRP, absorbance 450 nm [c]. As to the method: (§2) 1.5 ng of human VEGF diluted in 150 μL of buffer solution was placed in 96-well immune plate (Nunc, USA), and adsorbed at 4° C. overnight, followed by washing 3 times with a buffer solution containing 0.1% Tween 20. Then, they were reacted with a buffer solution including 1% bovine serum albumin (Sigma, USA) for 1 hr at room temperature, and washed 3 times. Then each well was treated with 150 μL of serially diluted antibody (1 ng/mL, 10 ng/mL, 30 ng/mL, 100 ng/mL, 1000 ng/mL and 3000 ng/mL) They were allowed to react for 1 hr at room temperature so that antigens may bind to antibodies, followed by washing 3 times with a buffer solution.
(§3) Each well was treated at 150 μL per well with anti-human immunoglobulin Fc-HRP antibody (AbSerotec, USA) diluted 1:20000 and allowed to react for 1 hr at room temperature. After the reaction was completed, washing was performed 3 times with a buffer solution, followed by addition of 150 μL of TMB (Sigma, USA) and color development for 10 min. The reaction was terminated with 1N sulfuric acid solution, and absorbance was measured at 450 nm using a spectrophotometer (Molecular Device, USA).
Take B1: the “EC50 (read off the curve)” value is approximately 0.02 µg/mL.
Still for that read-out and setting: the same measure for B5: approximately 0.02 µg/mL; for B6: approximately 0.02 µg/mL.

The target of another assay is T6, human VEGF. Description: ELISA, human VEGF coated, absorbance 650 nm [g].
In the case of B7, the “EC50 (read off the curve)” value is approximately 0.3 nM.
On the same count and under the same terms, the same measure for B8: approximately 0.1 nM.
B9: the “EC50 (read off the curve)” value is approximately 0.2 nM.

Another assay addresses T6, human VEGF. The assay is described as follows: ELISA, human VEGF coated, anti-human Fc-HRP, absorbance 450 nm [b]. How it is done: as §2, §3
As to B1, the “EC50 (read off the curve)” value was approximately 0.04 µg/mL.
For B2, the “EC50 (read off the curve)” value was approximately 0.04 µg/mL.
For the molecule B4, the “EC50 (read off the curve)” value is approximately 0.04 µg/mL.

For the next assay, the target named is T6, human VEGF. Description: SPR (BIAcore X100), VEGF on CM5 chip, IgG injected, 1:1 Langmuir. The source says:
Meanwhile, to measure the affinity, human VEGF and mouse VEGF were coupled to carboxymethylated dextran biosensor chips (CM5, GE) according to the manufacturer's instructions.
The association and dissociation rates were expressed by the association and dissociation sensorgram, and calculated using a simple 1:1 Langmuir binding model (BIAcore X100 evaluation software, ver. 2.0).
Target sequence in this assay (P15692 other isoform, or with tags, fused parts or gaps limits assumed): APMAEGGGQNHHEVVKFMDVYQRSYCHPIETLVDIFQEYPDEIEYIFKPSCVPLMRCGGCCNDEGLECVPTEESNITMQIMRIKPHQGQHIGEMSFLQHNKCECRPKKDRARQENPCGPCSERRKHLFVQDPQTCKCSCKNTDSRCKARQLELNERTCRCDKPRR
Consider B1, for which the Kd amounted to 0.019 nM, the koff amounted to 2.6e-05 s⁻¹ and the kon was found to be 1.3e+06 M⁻¹ s⁻¹.
The like results for B2 were, in that order, 0.018 nM, 3.2e-05 s⁻¹ and 1.7e+06 M⁻¹ s⁻¹.
In turn, B3 displayed a Kd of less than 0.001 nM, an off-rate constant (koff) of less than 1e-06 s⁻¹ and a kon of 2.5e+06 M⁻¹ s⁻¹.
Regarding B5, the Kd was found to be 0.0019 nM, the koff was determined as 3.1e-06 s⁻¹ and the kon came out at 1.6e+06 M⁻¹ s⁻¹.
On to B10, for which the Kd is less than 0.001 nM, the koff is less than 1e-06 s⁻¹ and the kon amounted to 1.3e+06 M⁻¹ s⁻¹.
In the same order, the values of B4 are 0.0047 nM, 6.8e-06 s⁻¹ and 1.4e+06 M⁻¹ s⁻¹.
As for B6, the Kd was 0.036 nM, the off-rate (koff) was found to be 5.7e-05 s⁻¹ and the kon stood at 1.5e+06 M⁻¹ s⁻¹.

For another assay, the target named is T5, mouse VEGF. The assay is described as follows: ELISA and BIAcore.
With B1, the “fold affinity over mother clone F” value is not below 10 times.
The same measure, in the same setting: the same measure for B7: not below 10 times; for B2: not below 10 times; for B3: not below 10 times.
The same measure, in the same setting: the same measure for B8: not below 10 times; for B9: not below 10 times.
On the same count and under the same terms, the same measure for B5: not below 10 times.
With B10, the “fold affinity over mother clone F” value is not below 10 times.
The same measure, in the same setting: the same measure for B4: not below 10 times; for B6: not below 10 times.

In a further assay the target is T6, human VEGF. The assay is described as follows: ELISA and BIAcore.
On to B1, for which the “fold affinity over mother clone F” value is not below 10 times.
On the same count and under the same terms, the same measure for B7: not below 10 times; for B2: not below 10 times; for B3: not below 10 times.
The same measure, in the same setting: the same measure for B8: not below 10 times; for B9: not below 10 times.
For B5, the “fold affinity over mother clone F” value is not below 10 times.
Still for that read-out and setting: the same measure for B10: not below 10 times; for B4: not below 10 times; for B6: not below 10 times.

A further assay addresses T5, mouse VEGF. The assay is described as follows: ELISA, mouse VEGF coated, anti-human Fc-HRP, absorbance 450 nm [a].
Consider B1, for which the “EC50 (read off the curve)” value is approximately 0.06 µg/mL.
The same measure, in the same setting: the same measure for B2: approximately 0.05 µg/mL.
Turning to B3, the “EC50 (read off the curve)” value was approximately 0.08 µg/mL.
In the case of B4, the “EC50 (read off the curve)” value is approximately 0.05 µg/mL.

Usually EC50 (read off the curve) stands for the concentration giving half of the maximal effect. Read a high EC50 (read off the curve) as a less potent agent. One may read the Kd as the equilibrium constant for the complex coming apart. Read a high Kd as weaker binding. For orientation: koff means the first-order rate constant of dissociation. Broadly, the kon is the rate constant with which the complex forms. High values mean faster complex formation, low ones slower complex formation.
